Test: soluble on expression in E. coli; label from the status in PepcDB or PDB records

Row | Sequence | soluble on expression in E. coli
1 | MKTHQYELIDEKVFEHEFDNGLKLFIIPKPGFQKTYVTYTTQFGSLDNHFKPIGSQQFVKVPDGVAHFLEHKLFEKEDEDLFTAFAEENAQANAFTSFDRTSYLFSATSNIESNIKRLLNMVETPYFTEETVNKEKGIIAEEIKMYQEQPGYKLMFNTLRAMYSKHPIRVDIAGSVESIYEITKDDLYLCYETFYHPSNMVLFVVGDVSPQSIIKLVEKHENQRNKTYQPRIERAQIDEPREINQRFVSEKMKLQSPRLMLGFKNEPLDESATKFVQRDLEMTFFYELVFGEETEFYQQLLNKDLIDETFGYQFVLEPSYSFSIITSATQQPDLFKQLIMDELRKYKGNLKDQEAFDLLKKQFIGEFISSLNSPEYIANQYAKLYFEGVSVFDMLDIVENITLESVNETSELFLNFDQLVDSRLEMENR | soluble
2 | MKTIIRYFSFVMGLMLTLPSFAKEKISIMLDWYVNPDHAAIIVAQQKGFFEKNNLEVEIIEPADPALPPKLAAAEKVDLAVSYQPQLYQQVAEGLPLVRVGSLISNPLNSVVVLKKSNLKSLADLKGKKVGYSVSGFEDGLLDTMLHSIGLSNKDVELVNVNWSLSPSLLTGQVDAVIGAFRNFELNQLALEKQEGIAFFPEQYGVPAYDELILVANKNSVTDKKTSAFLTALEQATSYLQAHPNEAWQAFVSYKPNELNTPLNQLAWKDTLPFLANKPRQLDAKRYQQMAEFMQQKGLIPKALALKEYAVEIELEHHHHHH | soluble
3 | MKTLLEVKDLQVSFDTHAGEVQAVRGVTFDLKKGETLAIVGESGSGKSVTSKALMGLIPNPPGRIKNGEIVFEGRDLTKLTEKEMQQVRGKDIAMIFQDPMTSLNPTMTIGNQIMEGLIKHQGMSKADARKVALELIDLVGIPNPEARLKQYPHQFSGGMRQRVVIAMALACNPKLLIADEPTTALDVTIQAQILELMKDIQQKTEAAIIFITHDLGVVANVADRVAVMYAGKVVEIGTVDEIFYNPKHPYTWGLIASMPSLDGSEEELYAIPGTPPDLLKPPKGDAFAPRNPQALKIDFEMDPPLFKVSDTHYAATWLLHEQAPEVRPPAVVEKRILQMKAGEQHD | not soluble
4 | MKTLMVFDPAMCCSTGVCGTDVDQALVDFSTDVQWLKQCGVQIERFNLAQQPMSFVQNEKVKAFIEASGAEGLPLLLLDGETVMAGRYPKRAELARWFGIPLDKVGLAPG | soluble
5 | MKTLVELPLLPLRDVVVYPHMVIPLFVGREKSIEALEAAMTGDKQILLLAQKNPADDDPGEDGLYRMGTVATVLQLLKLPDGTVKVLVEGEQRGQVERFIEEEGHIRAAVQAIDDANVGEREAEVFTRSLLSQFEQYVQLGKKVPAEVLSSLNSIDEPSRLVDTMAAHMALKIEQKQDILEITDLSSRVEHVLALLDAEIDLLQVEKRIRGRVKKQMERSQREYYLNEQMKAIQKELGDIDEGHNEVEELKKRIDAAGLTKEAHTKATAELNKLKQMSPMSAEATVVRSYIDWLLNVPWKAESKVRHDLAKAEDILDADHYGLEEVKERILEYLAVQKRVKKLKGPVLCLVGPPGVGKTSLAESIARATNRKFVRMALGGVRDEAEIRGHRRTYIGSMPGRLIQKMTKVGVRNPLFLLDEIDKMGSDMRGDPASALLEVLDPEQNHNFNDHYLEVDYDLSDVMFLCTANSMNIPAPLLDRMEVIRLPGYTEDEKVNIAAKYLIPKQVQANGLKKGELTFEEGALRDIIRYYTREAGVRSLERQIAKVCRKAVKEHAKLKRIQAVVSSETLENYLGVRKFRYGLAEQQDQIGQVTGLAWTQVGGELLTIEAAVVPGKGQLTKTGSLGDVMAESITAALTVVRSRAQSLGIAADFHEKRDIHIHVPEGATPKDGPSAGIGMCTALVSAITQIPVRADVAMTGEITLRGQVLAIGGLKEKLLAAHRGGIKTVIIPEENVRDLKEIPDNIKSDLVIKPVKWIDEVLQIALQYAPEPLPDAAPEMVAKDEKREPDSKERIST | not soluble
6 | MKTPALPTVQSPLLSSLPGVKHAFFTRQGGVSKGIYDSLNVGRGSQDEPADVEENRARIARWFGGGPEDLNVCYQIHSTIAIVADGSWGDARPEGDAVVSKTPGVICGAMAADCAPVLLVDPEARIVAAAHAGWRGALDGVVQSAVDRMVELGASPANITGVVGPCIGPKSYEVGLEFLHRFEADCPGSGRFFKPGASEDKRFFDLPAFVLDRLATAGVERREWVGRDTRAEEEWFFSNRRAFLNNDGDYGRLLSAITLEA | soluble
7 | MKTRISSSRVRFSRYYLRIRESLISIPSRKNQFRFIRKNRFALQASFRSFTENSLTLSFMLLRRSPMKQSRTFLIF | not soluble
8 | MKTVLVDWNLIPYAEAWQRQTEWFDTLVRAKAQGEAYENRIIMCEHPHVYTLGRSGKENNMLLNDDQLKAIQATLFHIDRGGDITYHGPGQLVCYPILNLEEFHLGLKEYVHLLEEAVIRVCASYGIEAGRLEKATGVWLEGSTPRARKICAIGVRSSHYVTMHGLALNVNTDLRYFSYIHPCGFIDKGVTSLRQELKHEVPMDEVKQRLECELGRLLNEKKQQIAQ | not soluble
9 | MKVAVLPGDGIGPEVTEAALKVLRALDEAEGLGLAYEVFPFGGAAIDAFGEPFPEPTRKGVEEAEAVLLGSVGGPKWDGLPRKIRPETGLLSLRKSQDLFANLRPAKVFPGLERLSPLKEEIARGVDVLIVRELTGGIYFGEPRGMSEAEAWNTERYSKPEVERVARVAFEAARKRRKHVVSVDKANVLEVGEFWRKTVEEVGRGYPDVALEHQYVDAMAMHLVRSPARFDVVVTGNIFGDILSDLASVLPGSLGLLPSASLGRGTPVFEPVHGSAPDIAGKGIANPTAAILSAAMMLEHAFGLVELARKVEDAVAKALLETPPPDLGGSAGTEAFTATVLRHLA | soluble
10 | MKVDRPSRSPFPQRIPQKFWKKINDENWIDVFDCKKIKERKQEFFWYKLDPLDLAKAVAMASQMNDRGVIPYPTPTLNDALNDHAALIRALNDSSIKKLFKEVRFFCTMRKRFSTIRNNPISVKREPTNF | soluble
11 | MKVIDLSQTFENNMSQFPGTPKIQLKAVTSVEESGYQVTDFHSVVHVGTHCDAPAHFISGATTIDQLPLDQFVGEAVLIDVTHIQERKLPKTVLHNTDIKEGDIVIFHSNLSTKWNTEAYEKEAFYLSEELAKELVRLKVKSIGLDFISPDEVTTETSPIHHILLGNDIYLIENLTNLDAIEEKRFFFSAAPLKIKNSDGAFARAFAVIFLEHHHHHH | soluble
12 | MKVIINGKEFDIPKGVRFGELSHEIEKAGIEFGCTDGQCGVCVARVIKGMECLNEPSEEEEETLWRVGAVDEDQRLTCQLVIEKEDCDEIVIESED | not soluble
13 | MKVLCYGVRDVELPIFEACNKEFGYDIKCVPDYLNTKETAEMAAGFDAVILRGNCFANKQNLDIYKKLGVKYILTRTAGTDHIDKEYAKELGFPMAFVPRYSPNAIAELAVTQAMMLLRHTAYTTSRTAKKNFKVDAFMFSKEVRNCTVGVVGLGRIGRVAAQIFHGMGATVIGEDVFEIKGIEDYCTQVSLDEVLEKSDIITIHAPYIKENGAVVTRDFLKKMKDGAILVNCARGQLVDTEAVIEAVESGKLGGYGCDVLDGEASVFGKDLEGQKLENPLFEKLVDLYPRVLITPHLGSYTDEAVKNMVEVSYQNLKDLAETGDCPNKIK | soluble
14 | MKVLTVVIPCYNSAEYMDRAIESLLIGDEELEILIVNDGSMDNTSIIADEYEKKYPNTIRVIHKENGGHGDAINTGLKHSKGVYFKVLDSDDWFDKASLKKVLEVLKNMIKDSKSLDMLISNYVYENFSINKSRSINYKGAMPKEKIFTWDSLGHLKSSQNILMHSVIYRTELLRECNLDLPKHTFYVDNIFVYKPLPYVKTMYYLDVDLYRYFIGREDQSVNEKVMIKRIDQQIKVTKILIDCYNPMLLNCKKLRKYMVKYLVMMMTVSTVLLIKDNTEQSLNKKRELWSYLHSKNRKLYFEVNKSFLGLLIQIKGFVGRKIILLGYSLSRKVFGFNLEHHHHHH | not soluble
15 | MKVLVTGATSGLGRNAAQWLLEAGHEVYAIGRDQLAGEELRKLGATFIPLDLTMTTMEVCQQWLKTCDVVWHCAAKSAPWGNPQDFHQTNVVVTHKLAQAAGREGVKRFIHISSPAVYFDFRHHHDLPETYRASRFSSHYASSKYAAEQVLHECIAHYPDTTYVILRPRGLFGPHDRVIVPRLLQQLSRDRNVLRLPGGGQAQLDLTFVLNVVHAMMLATDNDGLRSGAIYNITNQEPQRLVTMLDSLLNQQLHINYTLQPVPYSLLSVVAAGMELVASMTQKEPLLTRYSVGAVYFDMTLNSERAINELGYRPRYSMAEGIVLAGEWLSAQRSGQHG | not soluble
